# Test results taken from the DeepSol protein solubility set.
# Assay: soluble on expression in E. coli; label from the status in PepcDB or PDB records
row,Sequence,soluble on expression in E. coli
1,SASSSKALIESIGSLDKDSYVSLLSKLIGESKFVQNNPPELIPQEDLIVKHVLDSLRPYSTETGGGPLVINHVAYHSGRGNLIVEYPGSVPGKILSFVGMHMDVVTANPDDWEFDPFSLSIDGDKLRGRGTTDCLGHVALVTELMKKLGQAKPALKSTVVAVFIASEENSSIPGVGVDMLVKDKLLDKLKSGPLYWIDTADKQPCVGTGGMIPWKLQFTGKLFHSGLAHKAINAMELAMEGLKEIQARFYRDFPPHPQEEVYGFATPSTMKPTQWCYPAGGINQIPGECTVSGDVRLTPFYDVKEVITKLQEYVDDINGNIERLETRGPVSKYVLPDENLRGRLTLSFDEASAGVACNLDSPGFHVLCKATEEVVGHVKPYSITGTLPLIRDLQDEGFDVQTSGYGLMATYHAKNEYCLLTDMCQGFDVFIRIISQLEQV,soluble
2,SATKELDLLADTAIAETEKPLDLGLDDSKTHAFLFTATWCDWYFKDSRPTASQQCISAQNSVNNLTKKFDKFAWQGIISRLWTGPSELANYTKKYQVKHPIAIDVSNSMFHQYGIKEFPSLVVVKNGEVILKTSDFSKPESLAKQLSKL,not soluble
3,SAVAIPQATSLTNLVFLTKLIPRGSFTTILPKHHRKPIFVFSLQTQFSSPVTTLTSKNPKDDEQQQKLSFTLNYLIDSCGLSPDSATVASRKLLLDSPERPNTVLNLLRDHGFTTAQISSLVKKRPVLLLANAESVLLPKLSFFLSIGVSKSLLARTLASDPTILTRSLVNQLIPSYNFLKSVLDSDEKIVAALRRTTWVFLEDHTKNLVPNINYMAETGVPEKCIKLLLTHFPEAVMQKNHEFQAIAKQAQEMGFNPQKSTFVLAIHALSGKGNKSIWDKCFEVYQRWGWSEDDIMCAFKKHPHCMMLSERKINRTMEYFVNEMNMAPRSIAQCPVVLFFSLEKRIIPRCSVTKVLVSNGLVKEDWSLTSLLVPVEKVFLEKLVIKYEEELPELMNLYLGCTKL,soluble
4,SDIEAYFERIGYKNSVNKLDLATLTEVLQHQMRAVPFENLSMHCGEAMCLGLEATFDHIVRKKRGGWCLQVNHLLYWALTKMGFETTMLGGYVYITPVNKYSSEMVHLLVQVTISDRNYIVDSAYGSSYQMWEPLELTSGKDQPQVPAIFRLTEENGTWYLDQIRREQDVPNQEFVNSDLLEKSKYRKIYSFTLEPRTIEDFEYVNTYLQTSPASVFVSTSFCSLQTSEGVCCLIGSTLTSRRFSYKDNVDLVEFKSLTEEEIEDVLKTTFGISLEKKFVPKHGELVFTI,soluble
5,SEAQQKNYTFRCLQMSSFANRSWSRTDSVVWLGDLQTHRWSNDSATISFTKPWSQGKLSNQQWEKLQHMFQVYRVSFTRDIQELVKMMSPKEDYPIEIQLSAGCEMYPGNASESFLHVAFQGKYVVRFWGTSWQTVPGAPSWLDLPIKVLNADQGTSATVQMLLNDTCPLFVRGLLEAGKSDLEKQEKPVAWLSSVPSSAHGHRQLVCHVSGFYPKPVWVMWMRGDQEQQGTHRGDFLPNADETWYLQATLDVEAGEEAGLACRVKHSSLGGQDIILYWGSLHHILDAQKMVWNHRHHHHHH,soluble
6,SEDDAPVIYGLEFQARALTPQTAETDAIRFLVGTQSLKYDNQIHIIDFDDENNIINKNVLLHQAGEIWHISASPADRGVLTTCYNRTSDSKVLTCAAVWRMPKELESGSHESPDDSSSTAQTLELLCHLDNTAHGNMACVVWEPMGDGKKIISLADNHILLWDLQESSSQAVLASSASLEGKGQLKFTSGRWSPHHNCTQVATANDTTLRGWDTRSMSQIYCIENAHGQLVRDLDFNPNKQYYLASCGDDCKVKFWDTRNVTEPVKTLEEHSHWVWNVRYNHSHDQLVLTGSSDSRVILSNMVSISSEPFGHLVDDDDISDQEDHRSEEKSKEPLQDNVIATYEEHEDSVYAVDWSSADPWLFASLSYDGRLVINRVPRALKYHILL,soluble
7,SEEASTGTMVLLWAGGFQKVGGEQVSPLTGEVTRHRDRNIPYNLPVPSHPSNWVPLAAEVGPDSCDCGGPAPGLLLLLTRPHDPQFTVPSGWGRQLCPGHALLDEPLLPETGGHPVCERVGHPAPSGPPDLLGLAAGHVLCRVRHDTPVRIPGTGSGCVCTHPAVQWQADLLPHLTLWPNPGQGTVRTSVRNSGHTEEQQVGLS,soluble
8,SEENEEEEELRPTALYTVGGSDEFTFVSPDGLSGQYTGPDHDGVVLQTENPAPTNCLAYYFEVHIMNAGEKGEIAIGFSKEHIYSEGYTVRSCAYIGNSGLICSQNGDGDRTVAKASDTYTTGDLVGCGIDSVSQEFFFTKNGTIVGTIPRQFRRPVYPTIVLHSQNEAVTVNFGGQIAFSFDFEVRSYFSFLA,soluble
9,SEHWQAGRFIGQQTSARPSSKPLLAVQIDDLLTLASRFVGEERARQSFIRFAYRQGKGFNPNQNADGDWIEHTERLLAGVLGTSSTRAVVKAAIEGRDMQLEDVVRIADEASEVLQFNRALLQGAIENINQGISVVDQNL,not soluble
10,SENLPAVTTEEPTPMGRGPVGPSGGGSTRDQVRTVVMRPSVSWEKAGPEEAKAPVRGGATVPAESLERPGPSSCFSRDASVITKLAKNEAGAFEPPCSETVPETVRWVWPWNP,soluble
11,SERCDDWGLDTMRQIQVFEDEPARIKCPLFEHFLKFNYSTAHSAGLTLIWYWTRQDRDLEEPINFRLPENRISKEKDVLWFRPTLLNDTGNYTCMLRNTTYCSKVAFPLEVVQKDSCFNSPMKLPVHKLYIEYGIQRITCPNVDGYFPSSVKPTITWYMGCYKIQNFNNVIPEGMNLSFLIALISNNGNYTCVVTYPENGRTFHLTRTLTVKVVGSPKNAVPPVIHSPNDHVVYEKEPGEELLIPCTVYFSFLMDSRNEVWWTIDGKKPDDITIDVTINESISHSRTEDETRTQILSIKKVTSEDLKRSYVCHARSAKGEVAKAAKVKQKGNRCGQ,soluble
12,SETESDAEVACDLSNMEITEELRQYFAETERHREELLRRQQLDAERLNSYVNAEHDLYCNTRRSVEAPAERPGERRQAEMKRLYWDSAAKIQAMEANVQLSFDKHCDPKQPNYWPVIPPKF,soluble
13,SFQGQRGWFCGSVSQDLRQFWVAEGGTISDPRAADFLFSCDASHPDTLRIYQSLDYIEDNATVFHAYYLSAVANAKIKNSVALGHFILPPACLQKEIRRKIGSFIWEQDQHFLIEKHDEVTPNEIKTLRENSELATEHKKELSKSPEKHFIRTPVVEKQMYFPLQNYPVNNMVTGYISIDAMKKFLGELHDFIPGTSGYLAYHVQNEINMSAIKNKLKRK,soluble
14,SFQRALPRQPVPSAQETVRKYLESVRPVLGDDAFDRATALANDFLRLHAPRLQLYLQLKSWCTSNYVSDWWEEFVYLRSRGSLINSTYYMMDFLYVTPTPLQAARAGNAVHTLLLYRHLLNRQEISPTLLMGMRPLCSAQYERMFNTTRIPGVEKDHLRHLQDSRHVAVFHRGRFFRVGTHSPNGLLSPRALEQQFQDILDDPSPACPLEEHLAALTAAPRSMWAQVRESVKTHAATALEAVEGAAFFVSLDSEPAGLTREDPAASLDAYAHALLAGRGHDRWFDKSFTLIVFSNGKLGLSVEHSWADCPVSGHLWEFTLATECFQLGYATDGHCKGHPDPTLPQPQRLQWDLPEQIQPSISLALRGAKTLSGNIDCHVFPFSHFGKSFIKCCHVSSDSFIQLVLQLAHFRDRGQFCLTYESAMTRLFLEGRTETVRSCTREACQFVRAMDNKETDQHCLALFRVAVDKHQALLKAAMSGQGIDRHLFALYIMSRLLHMQSPFLTQVQSQQWLLSTSQVPVQQTHLIDVHNYPDYVSSGGGFGPAHDHGYGISYIFMGENAITFHISSKKSSTETDSHRLGQHIENALLDVASLFRVGQHFKRQFRGENSDYRYNFLSCKTVDPNTPTSSTNL,soluble
15,SGERDQSSDTDQERKGGKHPYSSHYSSDFGSSPQSSGPSSPVNTPPCASNREKNPKRHLSDHHVRHQTVRKVSPKAIPNKKGVRVGFRSQSLNREPLRKDPDIVTKRVLSARLLKITELQNEVSELQVKLAQLLKENKALKSLQYRQEKALSKFEDAENEISQLIHRHNGEITALKERLRKSQEKERMAEKRVKDTEGELFRTKFSLQKLKKISEARHLPERDDLAKKLVSAELKLDNTEKD,not soluble
16,SGLYRIRVSTGASLYAGSNNQVQLWLVGQHGEAALGKRLWPARGKETELKVEVPEYLGPLLFVKLRKRHLLKDDAWFCNWISVQGPGAGDEVRFPCYRWVEGNGVLSLPEGTGRTVGEDPQGLFQKHREEELEERRKLYRWGNWKDGLILNMAGAKLYDLPVDERFLEDKRVDFEVSLAKGLADLAIKDSLNVLTCWKDLDDFNRIFWCGQSKLAERVRDSWKEDALFGYQFLNGANPVVLRRSAHLPARLVFPPGMEELQAQLEKELEGGTLFEADFSLLDGIKANVILCSQQHLAAPLVMLKLQPDGKLLPMVIQLQLPRTGSPPPPLFLPTDPPMAWLLAKCWVRSSDFQLHELQSHLLRGHLMAEVIVVATMRCLPSIHPIFKLIIPHLRYTLEINVRARTGLVSDMGIFDQIMSTGGGGHVQLLKQAGAFLTYSSFCPPDDLADRGLLGVKSSFYAQDALRLWEIIYRYVEGIVSLHYKTDVAVKDDPELQTWCREITEIGLQGAQDRGFPVSLQARDQVCHFVTMCIFTCTGQHASVHLGQLDWYSWVPNAPCTMRLPPPTTKDATLETVMATLPNFHQASLQMSITWQLGRRQPVMVAVGQHEEEYFSGPEPKAVLKKFREELAALDKEIEIRNAKLDMPYEYLRPSVVENSVAI,soluble
17,SGNLLKVLTCTDLEQGPNFFLDFENAQPTESEKEIYNQVNVVLKDAEGILEDLQSYRGAGHEIREAIQHPADEKLQEKAWGAVVPLVGKLKKFYEFSQRLEAALRGLLGALTSTPYSPTQHLEREQALAKQFAEILHFTLRFDELKMTNPAIQNDFSYYRRTLSRMRINNVPAEGENEVNNELANRMSLFYAEATPMLKTLSDATTKFVSENKNLPIENTTDCLSTMASVCRVMLETPEYRSRFTNEETVSFCLRVMVGVIILYDHVHPVGAFAKTSKIDMKGCIKVLKDQPPNSVEGLLNALRYTTKHLNDETTSKQIKSMLQ,soluble
18,SGWRSSVSRSLRPETSCDRPSSHLRNMDVNMAAELSPTNSSSSGELSVSPEPPRETQAFLGKVTVIDYFTFQHKHLKVTNIDDMTETLYVKLPENMTRCDHLPITCEYLLGRGSYGAVYAHADNATVKLYDSVTELYHELMVCDMIQIGKATAEDGQDKALVDYLSACTSCHALFMPQFRCSLQDYGHWHDGSIEPLVRGFQGLKDAVYFLNRHCGLFHSDISPSNILVDFTDTMWGMGRLVLTDYGTASLHDRNKMLDVRLKSSKGRQLYRLYCQREPFSIAKDTYKPLCLLSKCYILRGAGHIPDPSACGPVGAQTALRLDLQSLGYSLLYGIMHLADSTHKIPYPNPDMGFDRSDPLYFLQFAAPKVVLLEVLSQMWNLNLDMGLTSCGESPCVDVTAEHMSQFLQWCRSLKKRFKESYFFNCRPRFEHPHLPGLVAELLADDFFGPDGRRG,soluble
19,SHEVVRDVPAMVVDRSNSTLSREYLRRVDATPEVSIVGHCTDMEEAKEQIRRRNAYGIIYVPEDFSEHLNTGRKAHISLYCDMSGLLYYKSLLIANTLVSLEMNKEIKIARSVGATERQGEIISYPIDYEDVALYNPTV,not soluble
20,SHRRFRRHWLVSPSIWWHNRRILDFMPSENRLNGIDVCLNIGALERGSDCKRREERDMAGQAEQMAAELDRHGAAVFFREYPNADHGNVPFYSLTDCVEYLRKAWQR,not soluble
21,SIGLTVEDLLSLRQVVSGNPEALAPLLENISARYPQLREHIMANPEVFVSMLLEA,soluble
22,SKKFSWNTSFNFTRNVNKVEKLENPYVYGSRDMVRNEEGYALYSFWMYNQLYVDKQTGQAVFEDVNGDGQITVADRKIMGNANPKFFGGLTNTFKYAGFDLNVFFVYQYGNKVVSFDRILNEGGGTKDNNRGIFEYNMNRWQKPGDDTDVPRVTSVGNNYGIEQNSRFLEDGSFIRLKTLTLGYTVPVDFTKKYSVQSVRFFVTGTNLLLFTKYKGPDPEAVHTSEQNARGIDVGTPPQPVSVQGGLTITL,not soluble
